Tests used:
[1] = molecular target: the molecule itself; experiment: single-molecule GFP photobleaching step counting (TIRF microscopy); immobilised forked DNA incubated with 24 nM GFP-tagged WRN and 1 nM RPA, unbound washed out; steps counted in the absence of ATP; only molecules with unwinding activity (Cy3-Cy5 FRET after 1 mM ATP-Mg2+) counted; room temperature
[2] = molecular target: the molecule itself; experiment: single-molecule GFP photobleaching step counting (TIRF microscopy); real-time binding of GFP-tagged WRN to model replication fork immobilised via biotin-streptavidin; all bound molecules counted; no ATP; 10 mM Tris-HCl pH 8.0, 50 mM NaCl; room temperature; oligomer counted on DNA

B1: GFP-tagged Werner syndrome protein (f:GFP-WRN) (enzyme)
chain: not shown
notes: Werner syndrome protein (WRN), human; cDNA encoding full-length WRN generated by RT-PCR from total RNA of HEK293T cells, subcloned into pFASTBAC1; Number of copies depends on the condition: dimer or tetramer on DNA (see measurements); also called GFP-tagged WRN; not shown: FLAG, N-terminal, kept; GFP, N-terminal, kept
- stoichiometry N [1]: 2
- stoichiometry N [2]: 4

From PMC9841404, “Werner syndrome protein works as a dimer for unwinding and replication fork regression” (Nucleic Acids Research, 2022)
